Test results taken from the nanobody polyreactivity screen of Harvey et al. (2022).

experiment: yeast display, Sf9 membrane polyspecificity reagent, FACS + sequencing; frameworks hold sequencing errors
How it was run: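 Galactose induction of a Saccharomyces cerevisiae BJ5465 synthetic nanobody display library ran 36–48 hours. The cells were then stained for 1 hour at 4 °C with 10% biotinylated, detergent-solubilized Sf9 membrane reagent, pulled down on streptavidin microbeads and FACS-sorted into low and high (top ~1%) gates on expression and reagent-binding fluorescence. Labels for polyreactivity follow the gate of origin.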

Sequence | polyreactivity (PSR sort gate)
QVQLVESGGGLDQAGGSLPLSCAASGNTFYPNAMGWYRQAPGKERELVAAITTSGGTTYYADSVKGRFTISRDNANYTVYLQMNSLKPEDTAVYYCAAYWSRDKYDYWGQGTQVTVSS | low polyreactivity
QVQLVESGGGLDQAGGSLPLSCAASGSIFYVYTMGTYRQAPGKERELVAAISFRSGSTYYADSVKGRFTISRDNAKNTVYLPMNSLKPEDTAVYYCAKPIPRGRNQLFNYWGQGTEVTVSS | high polyreactivity
QVQLVESGGGLDQAGGSLPLTCAASGRTFWGNAMGWYRQAPGQERELVAGISKSGGTTYADSVKGRFTISRDNAKNTVYLEMNRLKPEDTAVYYCAAGGWWWTIPYEYWGQGTKVTVSS | high polyreactivity
QVQLVESGGGLDQAGGSLRLICAASGFIFVWYAMGWYRPAPGKERELVAAISRRGGGTYYADSVKGRFTISRDNAKNTVYLQMNSLKPEDTAVYYCAAGSYYRYGYDFNYWGQGTQVTVSS | high polyreactivity
QVQLVESGGGLDQAGGSLRLICAASGGTSQRYVMGWYRQAPGKERELVAAITKSGVRTYYADSVKGRFTISRDNAKNKVYLQMNSLKPEDTAVYYCAAKTPTKDRGSDFDYWGQGTQVTVSS | high polyreactivity
QVQLVESGGGLDQAGGSLRLICAASGRTFRFNTMGWYRQAPGKERELVATISRRGGSTYYADSVKGRFTISRDNAKNTVYLLMNSLKPEDTAVYYCAVYGGSYRFDYWGQGTQVTVSS | high polyreactivity
QVQLVESGGGLDQAGGSLRLICADSGSIFYIYAMGWYIHAPGKETELVASISGSGSTYYADSVKGRFRISRDNAKNTVYLQMNSLKPEDTAVYYCAVELWRVWGAYSYTYDYWGQGTQVTVSS | high polyreactivity
QVQLVESGGGLDQAGGSLRLSCAAAGITFTYYAMGWYRPAPGKERELVASITIGGGSTYYADSVKVRFTISRDNAKNTVYLQMKSLKPEDTAVYYCNAAFSVRHLYRYDYWGQGTQVTVSS | low polyreactivity
QVQLVESGGGLDQAGGSLRLSCAASARIFAAYAMGWYRQAPGKEREFVAAITTAGSTHYADSVKGRFTISRDNAKYTVYLQMNSLKPEDTPVYYCAADGIARAYVLFDAYDFLYDYWGQGTQVTVSS | low polyreactivity
QVQLVESGGGLDQAGGSLRLSCAASGFIFDYYAMGWYRQPPWKERELVAAITSGDSTNYADSVKGRFTISRDNAKNTVYLQMNSLKPEDTAVYYCATRFGDRTVSYDSWGQGTQVTVSS | low polyreactivity
QVQLVESGGGLDQAGGSLRLSCAASGFIFFQYAMGWYRQAPGKERELVAAISGSGVTTYYADSVKGRFTISRDNAKNTVYLQMNSLKPEDTAVYYCAADTPPYYAYWDVSFEYYYWGQGTQVTVSS | low polyreactivity
QVQLVESGGGLDQAGGSLRLSCAASGFIFYRYAMGWYRQAPGKERELVAAINWSGGGTYYADSVKGRFTISRDNAKNTVYLQMNSLKPEDTAVYYCAAVRSFRGSYWYEYWGQGTKVTVSS | high polyreactivity
QVQLVESGGGLDQAGGSLRLSCAASGFISPWYAMGWYRPAPGKERELDAAIDWSGGSTYYADSVKGRFTISRDNAKNTVYIQMKSLKPEDTAVYYCAARYYTAAVRAGRVRMYSWGQGTQVTVSS | high polyreactivity
QVQLVESGGGLDQAGGSLRLSCAASGFTFPIYAMGWYRQAPGKERELVAAITTRGGRTYYADSVKGRFTISRDNAKNTVYLQMNSLKPEDTAVYYCNAQGYAYRLWFGYWGQGTQVTVSS | high polyreactivity
QVQLVESGGGLDQAGGSLRLSCAASGFTFYPYTMGWYRQAPGKERELVADITYDSTYYADSVKGRFTISRDNAKNTVFLQMNSLKPADTAVYYCNATGYSVSRSAYWYGWYDYWGQGTQVTVSS | low polyreactivity
QVQLVESGGGLDQAGGSLRLSCAASGIIFRSNAMGWYRQAPGKERELVAAITGRGTRTYYADSVKGRFTISRDNAKNTVYLQMNSLKPEDTAVDYCNTGQTRGMGYWGQGTQVTVSS | high polyreactivity
